Results published in PMC4538836, “Human DNA ligase III bridges two DNA ends to promote specific intermolecular DNA end joining”.

T1: DNA ligase III beta (LigIII) (Homo sapiens, UniProt P49916-4 1-862)
T1 sequence: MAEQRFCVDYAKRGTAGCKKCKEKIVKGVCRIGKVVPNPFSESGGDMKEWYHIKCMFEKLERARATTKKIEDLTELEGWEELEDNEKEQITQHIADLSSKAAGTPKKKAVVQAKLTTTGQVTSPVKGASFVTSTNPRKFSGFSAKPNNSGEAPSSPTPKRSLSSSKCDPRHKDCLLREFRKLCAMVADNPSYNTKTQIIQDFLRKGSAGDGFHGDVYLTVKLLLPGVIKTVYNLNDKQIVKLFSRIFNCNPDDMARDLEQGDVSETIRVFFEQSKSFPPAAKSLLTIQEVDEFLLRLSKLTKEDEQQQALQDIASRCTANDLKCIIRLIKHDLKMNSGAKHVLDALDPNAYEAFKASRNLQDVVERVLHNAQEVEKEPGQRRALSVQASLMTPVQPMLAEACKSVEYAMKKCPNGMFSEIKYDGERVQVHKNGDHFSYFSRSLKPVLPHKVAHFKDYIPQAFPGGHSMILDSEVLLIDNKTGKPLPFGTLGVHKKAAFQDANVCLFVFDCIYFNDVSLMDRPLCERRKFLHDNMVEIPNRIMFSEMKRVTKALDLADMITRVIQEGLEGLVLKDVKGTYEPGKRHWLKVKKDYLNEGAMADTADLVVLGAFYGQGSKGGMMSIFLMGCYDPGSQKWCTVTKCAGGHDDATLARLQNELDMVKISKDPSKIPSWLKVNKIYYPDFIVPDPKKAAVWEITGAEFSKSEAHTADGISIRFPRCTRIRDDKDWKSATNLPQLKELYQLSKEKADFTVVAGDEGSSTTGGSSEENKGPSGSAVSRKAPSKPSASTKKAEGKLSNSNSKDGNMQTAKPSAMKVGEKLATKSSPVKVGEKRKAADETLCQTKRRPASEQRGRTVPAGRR


Experiments:
[1] = target: T1, DNA ligase III beta (LigIII); experiment: fluorescence anisotropy; stoichiometric titration, 1 LigIII : 2 DNA; 50 mM HEPES-NaOH pH 7.5, 80 mM NaCl, 5 mM MgCl2, 1 mM DTT, 1 mM ATP, 50 ug/ml BSA; anisotropy 25 C (25 nM DNA), TR-FRET room temperature, pull-down 4 C; settings: protein: recombinant; tags: N-terminal His (pQE32); label: 5'-FITC on strand 1; blunt
[2] = target: T1, DNA ligase III beta (LigIII); experiment: TR-FRET; DNA bridging; 5 mM Mg2+, 1 mM ATP; 50 mM HEPES-NaOH pH 7.5, 80 mM NaCl, 5 mM MgCl2, 1 mM DTT, 1 mM ATP, 50 ug/ml BSA; anisotropy 25 C (25 nM DNA), TR-FRET room temperature, pull-down 4 C; settings: protein: recombinant; tags: N-terminal His (pQE32); label: 5'-biotin on S1; 5'-FITC on S3; two blunt duplexes

| Binder | binding result [1] | binding result [2] |
| --- | --- | --- |
| FITC blunt duplex (dsDNA) DNA 1: CATGATTACGG DNA 2: CCGTAATCATG | binds |  |
| bridged pair, blunt ends (dsDNA) DNA 1: AGTGAATTCGAGCTCG DNA 2: CGAGCTCGAATTCACT DNA 3: CATGATTACGG DNA 4: CCGTAATCATG |  | binds |
